B1: CHASE4 domain of IsmP (CHASE4^IsmP) (domain or fragment)
chain: not shown
notes: CHASE4 domain of IsmP (PA2072) of Pseudomonas aeruginosa PAO1; interface residues Q51, W55 and P247 lie outside 59-220; also called CHASE4 (IsmP^40-255); source: E. coli BL21, purified (HisTrap HP)
B2: PA1851 protein (purified ImcA) (natural protein)
chain: MLARDSLVQAGLPDNPYARQLRNGFRWLRFEKELENEFREFLSWNSLMQRRAAIGVAFLIWALFIVADWMMVDIRLHPSLFEQLLGVRLGMIGLLLVVWPAAFLPSLRKVGDAIAPYCLLLINLAVLACDVLFEWHGVPRFTQLGATLGILAVFFPLGLAFWACVRLALLCLALNLAVFLLFGGEENLRTNLLNTLYNGLVVLICSFALYLQDYAQREQFLGRRLLGMMAEQDSLTGLVNRRYYELLAQRALEQGAREEKGVALILVDVDDFKAYNDHYGHPAGDAALRQLGVVLRQGARRPLDIAARLGGEEFAVLLYDSEEGNTLAIAERLRQAVEALGIEHLGSSAGPCLTISLGVAYSTSGMGLDALYREADRALYEAKDAGRNAVRVAFRQHDRLE
notes: ImcA (PA1851) of Pseudomonas aeruginosa PAO1; 6TM domain L47-E231, GGDEF domain R241-A393; Homodimer in the cryo-EM structure with GMPCPP; source: E. coli BL21 (DE3), purified (membrane fraction, DDM, Strep-Tactin, Superose 6)

Assays:
[1] = target: the molecule itself; test: SEC + native gel or EMSA; purified CHASE4 domain in solvent
[2] = target: the molecule itself; test: cryo-EM structure; ImcA with the substrate analog GMPCPP, 10 mg/ml, 3.07 Å, C2 symmetry

Row | Protein | stoichiometry N [1] | binding result [2]
1 | B1 | 2 | –
2 | B2 | – | binds

Reference: publication PMC10904736, “A c-di-GMP signaling module controls responses to iron in Pseudomonas aeruginosa” (Nature Communications, 2024)
